No end group written: not given here.
T1: DGI-2 (UniProt Q15004 1-111, limits assumed)
T1 construct: Soluble recombinant DGI-2 made by in vitro translation (RTS, pIVEX2.3-MCS vector) and coated on plates for the ELISA; vector tag not described; also called KIAA0101; DGI-2 polypeptide
T1 sequence (looked up): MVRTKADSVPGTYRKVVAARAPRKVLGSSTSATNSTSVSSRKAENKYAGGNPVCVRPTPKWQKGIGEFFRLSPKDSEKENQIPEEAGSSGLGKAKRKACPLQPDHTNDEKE

B1: DGI-2-20F-PP-C3 (peptide)
peptide: LGRTFVWGTCLHLSVSRFGH
notes: on M13 phage, pIII fusion with E-tag
B2: DGI-2-20F-PP-D5 (peptide)
peptide: WVVALRRIRLGLRRGVECLL
notes: as for B1
B3: DGI-2-40F-3-C8 (peptide)
peptide: YGTAGLFLRRACTMSDPGDPLGRRGYTGWGVLWDEWVTGS
notes: as for B1
B4: DGI-2-20R-4-F6 (peptide)
peptide: GNKCFPPHDLFWDPCDQLQS
modifications: not fully specified (bridges); cysteine pairing not given here
notes: as for B1
B5: DGI-2-20F-3-C1 (peptide)
peptide: GSVLERGCLEFSGFCFSLGH
notes: as for B1
B6: DGI-2-20F-PP-C2 (peptide)
peptide: GLYQRGLAPRCRGERFGVRN
notes: as for B1
B7: DGI-2-20F-PP-C10 (peptide)
peptide: DRSRAPLCADKSGRWQRYRR
notes: as for B1
B8: DGI-2-20R-3-D7 (peptide)
peptide: VHSQGRMWAIPGLRGGTGAS
notes: as for B1
B9: DGI-2-20F-PP-C4 (peptide)
peptide: SIILAGCVWVMPCGQNLGGV
modifications: not fully specified (bridges); cysteine pairing not given here
notes: as for B1
B10: DGI-2-20F-PP-A9 (peptide)
peptide: TFTRDVAGPAVSFVRLHSWN
notes: as for B1
B11: DGI-2-20R-4-H7 (peptide)
peptide: LSHPMSPLRAASQMALTQGV
notes: as for B1
B12: DGI-2-20R-4-F1212 (peptide)
peptide: MSSTAWTDRILQRGIGLGPV
notes: as for B1
B13: DGI-2-20R-4-H12 (peptide)
peptide: MSTLQGPGHLFQMLRRASLG
notes: as for B1
B14: DGI-2-20R-3-C10 (peptide)
peptide: SLSLYWDAQVGCEVFWGYCV
modifications: not fully specified; cysteine pairing not given here
notes: as for B1
B15: DGI-2-20F-PP-A3 (peptide)
peptide: SLFERSARSRYHGSPDCNGS
notes: as for B1
B16: DGI-2-40F-3-C424 (peptide)
peptide: TVKFQGVVQERSRIAGFRYCGDHAVSWGLAGCPALRDKLQ
notes: as for B1
B17: DGI-2-20F-4-E3 (peptide)
peptide: RNWLDKDCVWMGDCGARAGE
notes: as for B1
B18: DGI-2-40F-3-D11 (peptide)
peptide: LHFGSVMGWRPPGSLWSRPFGQVHPRSWSGS
notes: as for B1
B19: DGI-2-20F-PP-D9 (peptide)
peptide: VRAVYSRDAYNEVGRWMRVGI
notes: as for B1
B20: DGI-2-20R-3-B12 (peptide)
peptide: DGKHLTKWSGRGWWSAWVGG
notes: as for B1
B21: DGI-2-20R-3-B11 (peptide)
peptide: GWGCSVPGILCVGGHRQGGG
modifications: not fully specified; cysteine pairing not given here
notes: as for B1
B22: DGI-2-20F-4-F9 (peptide)
peptide: LPQSRWLSEAWASWVDGVVD
notes: as for B1
B23: DGI-2-20F-3-C12 (peptide)
peptide: LTPYSLARSWLSGRPSTGAT
notes: as for B1
B24: DGI-2-20F-3-A7 (peptide)
peptide: LSLLSVVVRSMGASAPQRQV
notes: as for B1
B25: DGL-2-20R-3-D6 (peptide)
peptide: ACSVGTALVFPQRWWYLGRS
notes: as for B1
B26: DGI-2-20R-3-B3 (peptide)
peptide: MFQDVACDLWHSVRCLRRDV
modifications: not fully specified (bridges); cysteine pairing not given here
notes: as for B1
B27: DGI-2-20F-PP-C7 (peptide)
peptide: SSVWATWGSDLRTFGSVGFL
notes: as for B1
B28: DGI-2-20F-3-B102 (peptide)
peptide: GLRACDTYLGFCVGARRIDD
notes: as for B1
B29: DGI-2-20R-3-A6 (peptide)
peptide: GGGRESWGGGWFMGWGSGAG
notes: as for B1
B30: DGI-2-40F-4-F6 (peptide)
peptide: SYRNFAMQSSLQVRRGSVVEDGTCWWEGVRCYSG
notes: as for B1
B31: DGI-2-20E-3-A1 (peptide)
peptide: CRNFGVIWGAGWVSPGCEDI
modifications: not fully specified
notes: as for B1
B32: DGI-2-40F-3-D7 (peptide)
peptide: ALRSLGSGGFGWQAGRASPQGMTHFPYFGWSGMPTARVRP
notes: as for B1
B33: DGI-2-40F-3-D6 (peptide)
peptide: GLEPVPFQTDKRIAMGWTREWLVNGYGAAHRRDARMQSGH
notes: as for B1
B34: DGI-2-20C-3-C1039 (peptide)
peptide: RPVVCLAGLTLAQFGWVFPGWRGWS
notes: as for B1
B35: DGI-2-20F-PP-E6 (peptide)
peptide: EVFVSVWVFRFRVMPVTPGGT
notes: as for B1
B36: DGI-2-20R-3-A7 (peptide)
peptide: VLQRSLWKDWVDGVMHGGGSRGV
notes: as for B1
B37: DGI-2-20F-PP-C9 (peptide)
peptide: YAMSSRECGIRNSGLILSMW
notes: as for B1
B38: DGI-2-20F-PP-G6 (peptide)
peptide: GSTRLRVTVRFCSETGTPGC
modifications: not fully specified; cysteine pairing not given here
notes: as for B1
B39: DGI-2-40F-3-A1 (peptide)
peptide: REFFNQASRGAWGYMFREWVEG
notes: as for B1
B40: DGL-2-20R-3-B6 (peptide)
peptide: TSCQVMFLAGQHLLSRVPRL
notes: as for B1
B41: DGI-2-20R-4-E82 (peptide)
peptide: DAGIGWVGSMWFPPGCIGAC
modifications: not fully specified (bridges); cysteine pairing not given here
notes: as for B1
B42: DGI-2-20R-4-G7 (peptide)
peptide: YTPASILTGFQRGYEGAGNG
notes: as for B1
B43: DGI-2-40F-3-C92 (peptide)
peptide: RFWSVSYQGGRVMCREWGYCLPI
modifications: not fully specified (bridges); cysteine pairing not given here
notes: as for B1
B44: DGI-2-40F-3-D12 (peptide)
peptide: QGSAHVVRPPGVYDVPWKVGMFFHPQNWPNSWGRAYFRSG
notes: as for B1
B45: DGI-2-20R-4-E2 (peptide)
peptide: TANGHRYGGCGLWCKWMSGM
modifications: not fully specified; cysteine pairing not given here
notes: as for B1
B46: DGI-2-20C-4-H316 (peptide)
peptide: RWSICRGLQYSIPGCAVEDLSDVMA
notes: as for B1
B47: DGI-2-20R-3-B7 (peptide)
peptide: SWRLWVSGELQGDRRKGLRG
notes: as for B1
B48: DGI-2-20F-PP-A4 (peptide)
peptide: RVSYEMLGRRRRSMHGSSMR
notes: as for B1
B49: DGI-2-20R-3-C8 (peptide)
peptide: VVRQGCMAFSGLCSGVTESE
modifications: not fully specified; cysteine pairing not given here
notes: as for B1
B50: DGI-2-20R-3-C4 (peptide)
peptide: SRPGWCSRGTAWGFPGCSSS
modifications: not fully specified (bridges); cysteine pairing not given here
notes: as for B1
B51: DGI-2-20R-3-C7 (peptide)
peptide: MGVVLECEGGWSIPGQTCYF
modifications: not fully specified; cysteine pairing not given here
notes: as for B1

Target: T1, DGI-2
Test: phage ELISA, coated DGI-2
Experimental: For analysis of individual target binders, colonies were picked and phage prepared as described above using helper phage, M13KO7. Ninety-six-well microtiter plates were coated with 500 ng/well of specific target protein, 500 ng/well lactate dehydrogenase (LDH) irrelevant or non-specific target, 500 ng/well of positive control antibody raised against ETAG, and negative control of non-fat milk powder-PBS 2% at 4° C. overnight. Plates were then blocked with 350 microliters/well PBS containing 2% non-fat milk for 1 hr at room temperature. One hundred microliters per well of phage from isolated clones were added and plates were incubated at room temperature for 2 hr after centrifuging samples for 20 minutes at 3500 rpm at 4° C. The phage solution was then removed, and the wells were washed three times with PBS at room temperature. Antibody raised against M13 conjugated to horseradish peroxidase (Pharmacia) was diluted 1:3000 in PBS-Tween and added to each well (100 µl/well). Incubation was for 1 hr at room temperature, followed by washing with PBS-(0.5%) Tween 3 times as described. Color was developed by addition of ABTS solution (100 µl/well; Boehringer, Indianapolis, Ind.). Plates were analyzed at 405 nm. A clone was considered "positive" if the $A405$ of the well was $\geq$2-fold over background.

Binder | binding result
B1 | binds
B2 | binds
B3 | binds
B4 | binds
B5 | binds
B6 | binds
B7 | binds
B8 | binds
B9 | binds
B10 | binds
B11 | binds
B12 | binds
B13 | binds
B14 | binds
B15 | binds
B16 | binds
B17 | binds
B18 | binds
B19 | binds
B20 | binds
B21 | binds
B22 | binds
B23 | binds
B24 | binds
B25 | binds
B26 | binds

Binder | binding result
B27 | binds
B28 | binds
B29 | binds
B30 | binds
B31 | binds
B32 | binds
B33 | binds
B34 | binds
B35 | binds
B36 | binds
B37 | binds
B38 | binds
B39 | binds
B40 | binds
B41 | binds
B42 | binds
B43 | binds
B44 | binds
B45 | binds
B46 | binds
B47 | binds
B48 | binds
B49 | binds
B50 | binds
B51 | binds

— patent publication US7056679 (ANTYRA, dated 2006)
